Columns and labels:
Assay in all cases: BLI; BLI on Octet Red 96, biotin-DNA-DRE on SA sensors, protein 0.5-32 uM (HD2) or 0.25-16 uM (HD1-HD2); buffer, salt, pH and temperature not given in the material
DUX4 HD2 K97A = DUX4 HD2 K97A (human, UniProt Q9UBX2 94-153, K97A); conditions: protein: recombinant; tags: N-terminal His-tag, removed with thrombin; blunt
DUX4 HD2 N144E = DUX4 HD2 N144E (human, UniProt Q9UBX2 94-153, N144E); conditions: protein: recombinant; tags: N-terminal His-tag, removed with thrombin; blunt
Chain of DUX4 HD2 N144E (Q9UBX2 94-153 N144E): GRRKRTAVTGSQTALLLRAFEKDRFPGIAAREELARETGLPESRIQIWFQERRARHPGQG

DUX4 HD2 R98A = DUX4 HD2 R98A (human, UniProt Q9UBX2 94-153, R98A); conditions: protein: recombinant; tags: N-terminal His-tag, removed with thrombin; blunt
Chain of DUX4 HD2 R98A (Q9UBX2 94-153 R98A): as the sequence (Q9UBX2 94-153 N144E) above, with R5A, E51N counted along it

DUX4 HD1-HD2 = DUX4 HD1-HD2 (human, UniProt Q9UBX2 19-153); conditions: protein: recombinant; blunt
Chain of DUX4 HD1-HD2 (Q9UBX2 19-153): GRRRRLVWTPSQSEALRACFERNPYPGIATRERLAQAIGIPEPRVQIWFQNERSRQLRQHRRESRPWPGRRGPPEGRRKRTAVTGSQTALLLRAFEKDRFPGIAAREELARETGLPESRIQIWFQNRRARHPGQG

DUX4 HD2 R96A = DUX4 HD2 R96A (human, UniProt Q9UBX2 94-153, R96A); conditions: protein: recombinant; tags: N-terminal His-tag, removed with thrombin; blunt
Chain of DUX4 HD2 R96A (Q9UBX2 94-153 R96A): as the sequence (Q9UBX2 94-153 N144E) above, with R3A, E51N counted along it

DUX4 HD2 Q143E = DUX4 HD2 Q143E (human, UniProt Q9UBX2 94-153, Q143E); conditions: protein: recombinant; tags: N-terminal His-tag, removed with thrombin; blunt
Chain of DUX4 HD2 Q143E (Q9UBX2 94-153 Q143E): as the sequence (Q9UBX2 94-153 N144E) above, with Q50E, E51N counted along it

DUX4 HD2 R148E = DUX4 HD2 R148E (human, UniProt Q9UBX2 94-153, R148E); conditions: protein: recombinant; tags: N-terminal His-tag, removed with thrombin; blunt
Chain of DUX4 HD2 R148E (Q9UBX2 94-153 R148E): as the sequence (Q9UBX2 94-153 N144E) above, with E51N, R55E counted along it

DUX4 HD2 R95A = DUX4 HD2 R95A (human, UniProt Q9UBX2 94-153, R95A); conditions: protein: recombinant; tags: N-terminal His-tag, removed with thrombin; blunt
Chain of DUX4 HD2 R95A (Q9UBX2 94-153 R95A): as the sequence (Q9UBX2 94-153 N144E) above, with R2A, E51N counted along it

Chain of DUX4 HD2 K97A (Q9UBX2 94-153 K97A): as the sequence (Q9UBX2 94-153 N144E) above, with K4A, E51N counted along it

B1: biotin-DNA-DRE (BLI) (dsDNA)
DNA 1: TTCTAATCTAATCA
DNA 2: TGATTAGATTAGAA
modifications: biotin
DUX4 HD2 K97A
  binding result: no binding
DUX4 HD2 N144E
  Kd: 55 µM
DUX4 HD2 R98A
  binding result: no binding
DUX4 HD1-HD2
  Kd: 1.4 µM
DUX4 HD2 R96A
  binding result: no binding
DUX4 HD2 Q143E
  Kd: 31 µM
DUX4 HD2 R148E
  Kd: 67 µM
DUX4 HD2 R95A
  binding result: no binding

From publication PMC5990521, “Structural basis of DUX4/IGH-driven transactivation”
